Test results reported in patent US20260365758 (published 2026).

Columns and labels:
[1] = target: human STEAP1 (human); experiment: FACS, LNCaP-X1.2 cells, bivalent
[2] = target: human STEAP1 (human); experiment: KinExA, monovalent, live 293 cells
[3] = target: cynomolgus STEAP1 (cynomolgus monkey); experiment: KinExA, monovalent, live 293 cells
Sequence of cynomolgus STEAP1 (cynomolgus monkey) (chain, as listed by the source): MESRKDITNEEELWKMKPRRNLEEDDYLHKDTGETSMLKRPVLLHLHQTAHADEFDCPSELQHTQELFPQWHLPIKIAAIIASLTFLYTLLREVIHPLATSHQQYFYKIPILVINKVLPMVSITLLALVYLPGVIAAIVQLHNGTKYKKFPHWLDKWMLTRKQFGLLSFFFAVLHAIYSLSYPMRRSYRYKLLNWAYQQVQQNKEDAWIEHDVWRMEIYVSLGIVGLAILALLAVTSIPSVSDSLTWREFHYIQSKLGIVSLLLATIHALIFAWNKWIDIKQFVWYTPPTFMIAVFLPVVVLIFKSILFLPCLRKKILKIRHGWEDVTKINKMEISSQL

Sequence of human STEAP1 (human) (chain, as listed by the source): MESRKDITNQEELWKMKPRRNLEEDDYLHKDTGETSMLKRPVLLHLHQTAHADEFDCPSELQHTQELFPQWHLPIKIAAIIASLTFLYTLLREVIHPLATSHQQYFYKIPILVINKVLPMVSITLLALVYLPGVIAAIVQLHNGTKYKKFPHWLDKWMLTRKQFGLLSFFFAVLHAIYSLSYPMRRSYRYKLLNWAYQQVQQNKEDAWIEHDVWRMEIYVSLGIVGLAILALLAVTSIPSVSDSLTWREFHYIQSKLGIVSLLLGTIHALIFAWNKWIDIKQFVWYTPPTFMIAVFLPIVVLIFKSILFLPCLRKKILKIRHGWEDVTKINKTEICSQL

B1: vandortuzumab (antibody, V domains shown)
VH: EVQLVESGGGLVQPGGSLRLSCAVSGYSITSDYAWNWVRQAPGKGLEWVGYISNSGSTSYNPSLKSRFTISRDTSKNTLYLQMNSLRAEDTAVYYCARERNYDYDDYYYAMDYWGQGTLVTVSS
VL: DIQMTQSPSSLSASVGDRVTITCKSSQSLLYRSNQKNYLAWYQQKPGKAPKLLIYWASTRESGVPSRFSGSGSGTDFTLTISSLQPEDFATYYCQQYYNYPRTFGQGTKVEIK
EC50 [1]: 3.5 nM

B2: huAb44.v6.05-40G5c (STEAP1 arm) (antibody, V domains shown)
VH: EVQLVESGGGLVQPGGSLRLSCAASGFTFSDHYMAWVRQAPGKGLVWVSYIDYDGGSTSYGDSVKGRFTISRDNAKSTLYLQMNSLRAEDTAVYYCARRSGFYHVGYAMNAWGQGTTVTVSS
VL: DIVLTQTPLSLSVTPGQPASISCRSSQSLEYSDGYTYLEWYLQKPGQSPQLLIYGVSNRFSGVPDRFSGSGSGTDFTLKISRVEAEDVGVYYCFQATHDPLTFGGGTKVEIK
Kd [2]: 29 nM | Kd [3]: 14 nM

B3: huAb44.v6.05 (antibody, V domains shown)
VH: EVQLVESGGGLVQPGGSLRLSCAASGFTFSDHYMAWVRQAPGKGLVWVSYIDYDGGSTSYGDSVKGRFTISRDNAKSTLYLQMNSLRAEDTAVYYCARRSGFYHVGYAMNAWGQGTTVTVSS
VL: DIVLTQTPLSLSVTPGQPASISCRSSQSLEYSDGYTYLEWYLQKPGQSPQLLIYGVSNRFSGVPDRFSGSGSGTDFTLKISRVEAEDVGVYYCFQATHDPLTFGGGTKVEIK
EC50 [1]: 1.9 nM
